Measurements from the supplement of paper PMC9732359.
± gives the uncertainty stated by the source.

Assay: protein stability index of a GFP-peptide fusion (yeast GPS) (PSI 1-4); higher = more stable; sorted into four equal gates, so the index is relative within each strain
Summary of the method: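 Sequencing reads from sorted gates were used to score each peptide. The library consisted of tiled 17-residue yeast protein peptides fused downstream of GFP on a Cherry-expressing plasmid, pooled and carried in yeast. Mid-log cultures in leucine-free medium were split into four equal gates by GFP/Cherry ratio, and each gate's plasmids were PCR-amplified and Illumina-sequenced. The protein stability index adds up, over all gates, the read frequency multiplied by the gate number.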

Sequence	protein stability index (doa10∆)	protein stability index (pdr5∆)	protein stability index (san1∆)	protein stability index (ubr1∆)
AQNVPMNIIQQQQQQNT [GAL11]	2.48 ± 0.043	2.6 ± 0.042	2.45 ± 0.069	2.46 ± 0.029
AQSRNVEIEKRILKLGT [YGR119C/NUP57]	3.33 ± 0.082	3.15 ± 0.071	3.33 ± 0.077	3.34 ± 0.078
AQSSHIRAIRKVISEIL [RPS1A]	1.55 ± 0.017	1.624 ± 0.015	1.62 ± 0.031	1.748 ± 0.015
AQSVGCRVDFKNPHDII [RPL12A]	2.15 ± 0.061	2.4 ± 0.078	2.23 ± 0.12	2.32 ± 0.1
AQYCYKNGLYQEAFKIY [SRP72]	2.87 ± 0.075	2.94 ± 0.097	3.1 ± 0.069	3.25 ± 0.059
ARGTIEIVSDVKVVDAG [RPP0]	1.61 ± 0.1	2.21 ± 0.07	1.96 ± 0.15	1.77 ± 0.095
ARKELPIFDYIHIDALE [SIR3]	2.3 ± 0.053	2.34 ± 0.056	2.21 ± 0.059	2.5 ± 0.047
ARNVQVHQEPYVFNARP [RPS0A]	3.01 ± 0.098	3.25 ± 0.063	2.99 ± 0.051	3.06 ± 0.063
ARQQVAQQLRNQQQQQQ [GAL11]	2.73 ± 0.064	3.2 ± 0.13	2.85 ± 0.097	2.92 ± 0.076
ARRLKNRAARDRRAQRV [RPL19A]	2.97 ± 0.14	3.43 ± 0.1	2.57 ± 0.13	3.17 ± 0.062
ARSIDVEKGVNPTKSKE [ECM29]	3.32 ± 0.26	3.51 ± 0.24	–	3.2 ± 0.29
ARTATVSKKWAAAGVCE [RPL14B]	2.9 ± 0.089	3.21 ± 0.084	3.58 ± 0.11	2.72 ± 0.066
ARTIKATLPYIKQDIPI [RPB2]	2.73 ± 0.1	2.3 ± 0.061	2.26 ± 0.075	2.74 ± 0.072
ARYVIATSTKVSVEGVN [RPL6A]	1.62 ± 0.051	1.52 ± 0.048	1.47 ± 0.11	1.27 ± 0.034
ASAGSKEGASTNWDDHA [YMR153W/NUP53]	3.26 ± 0.13	3.49 ± 0.14	3.27 ± 0.077	3.42 ± 0.11
ASDESLLRYGGAFTIAL [RPN2]	3.39 ± 0.099	3.35 ± 0.13	3.25 ± 0.098	3.34 ± 0.083
ASLADVMSIESLVEVVF [FAS1]	2.89 ± 0.08	2.18 ± 0.067	1.78 ± 0.091	2.97 ± 0.062
ASLKHDNETKAMLINLI [RPN3]	2.85 ± 0.28	3.21 ± 0.27	2.8 ± 0.13	2.77 ± 0.29
ASPSAHTSSSDGNNEIF [RPN4]	2.36 ± 0.063	2.73 ± 0.046	2.61 ± 0.067	3 ± 0.063
ASSAVMNRRKIAMPKRR [YLR335W/NUP2]	1.19 ± 0.074	1.3 ± 0.071	1.23 ± 0.2	1.16 ± 0.11
ASSPIILEEGSSGMGAF [RPN10]	3.04 ± 0.079	3.04 ± 0.083	2.99 ± 0.089	3.14 ± 0.059
ASTGSGKTLAFVIPILI [PRP28]	1.47 ± 0.069	1.29 ± 0.079	1.48 ± 0.17	3.09 ± 0.1
ASVGDILKTLERSICAL [YML031W/NDC1]	2.12 ± 0.066	2.94 ± 0.088	2.79 ± 0.086	2.64 ± 0.058
ATALQTCAGGRLFNVVV [SMC2]	2.63 ± 0.12	2.9 ± 0.13	3.13 ± 0.15	2.12 ± 0.15
ATASAIAATAVASLVLA [RPL4A]	2.37 ± 0.1	1.78 ± 0.071	1.91 ± 0.17	1.88 ± 0.082
ATFLLTDIKDTLTKISM [MCD1]	3.03 ± 0.13	3.14 ± 0.13	2.88 ± 0.099	3.17 ± 0.08
ATKDNELNVKHVKQCQE [SMC2]	2.96 ± 0.1	3.35 ± 0.2	2.97 ± 0.066	3.32 ± 0.05

Sequence	protein stability index (doa10∆)	protein stability index (pdr5∆)	protein stability index (san1∆)	protein stability index (ubr1∆)
ATQMTLNTFHFAGVASK [RPO21]	1.89 ± 0.11	1.9 ± 0.076	2 ± 0.22	2.32 ± 0.14
ATSVESVDIGVETILSG [FAS2]	2.93 ± 0.084	2.9 ± 0.089	2.13 ± 0.089	3.1 ± 0.069
AVDHRRQNRNQEIFDAN [RPL13A]	3.15 ± 0.075	3.21 ± 0.058	3.23 ± 0.044	3.34 ± 0.046
AVEQRKKEKLDSGEVDA [DPB4]	3.2 ± 0.23	3.21 ± 0.17	3.36 ± 0.1	3.27 ± 0.1
AVFKIVLQPLLPRELPK [SNU114]	2.05 ± 0.083	1.76 ± 0.091	2.05 ± 0.095	2.18 ± 0.074
AVHNGGRKHVAALRTVK [RPL9A]	–	–	–	2.88 ± 0.19
AVLKKIQSKAVEQGYED [YCG1]	3.05 ± 0.12	3.38 ± 0.092	3.08 ± 0.072	3.07 ± 0.084
AVSTIASISLAIGYPTL [RPP0]	1.92 ± 0.055	2.12 ± 0.056	1.53 ± 0.1	2.15 ± 0.049
AVSVANGFMHAGTTDNS [RPN2]	1.25 ± 0.062	1.4 ± 0.051	1.17 ± 0.24	1.28 ± 0.067
AVVVRGRYAGKKVVIVK [RPL27A]	3.13 ± 0.11	3.38 ± 0.067	3.03 ± 0.074	2.81 ± 0.082
AYFMVGAMGLLSSAGAK [RIP1]	1.99 ± 0.11	2.51 ± 0.11	2.06 ± 0.18	2.34 ± 0.091
AYGNWFNGLKPLIQNSM [PRP8]	2.94 ± 0.063	3.31 ± 0.099	2.85 ± 0.11	3.13 ± 0.049
AYLLLNAAGNTPDATKI [RPP2A]	2.2 ± 0.038	2.17 ± 0.036	2.17 ± 0.051	2.49 ± 0.039
AYPGKLICPQYGTENKD [CSL4]	1.89 ± 0.073	1.93 ± 0.068	1.72 ± 0.15	1.9 ± 0.078
AYSPKQDEQKHNENENS [RPO21]	2.65 ± 0.065	2.49 ± 0.072	2.57 ± 0.09	2.68 ± 0.061
CANKYMTTVSGRDAFHL [RPL10]	2.24 ± 0.24	2.64 ± 0.15	1.74 ± 0.2	1.92 ± 0.1
CASIPIAIIKDTSDIIV [RRP46]	1.73 ± 0.044	1.88 ± 0.043	1.75 ± 0.065	1.6 ± 0.04
CDVFWVQKDTAIIRLHP [POP1]	2.29 ± 0.079	2.62 ± 0.097	2.5 ± 0.095	2.58 ± 0.079
CEKWAASSWAKKIAQRE [RPL14A]	2.35 ± 0.089	3.16 ± 0.12	2.24 ± 0.17	2.06 ± 0.062
CFDSTTGRDAGFGILED [RRP40]	3.33 ± 0.13	3.24 ± 0.13	3.47 ± 0.12	3.41 ± 0.074
CFKPMSLTSKRLISQSL [RIP1]	2.64 ± 0.24	2.42 ± 0.16	–	2.1 ± 0.049
CFSINDDPVPTPPAIEH [SSN2]	2.42 ± 0.25	2.1 ± 0.26	–	–
CIIAVSCTLLERGHPKD [POP1]	1.46 ± 0.022	1.52 ± 0.029	1.81 ± 0.036	1.96 ± 0.027
CISLGSTKLSRPFDSFG [ITC1]	3.06 ± 0.067	2.93 ± 0.061	3.03 ± 0.048	3.01 ± 0.08
CITLDQLAVRAPKGQNT [RPL18A]	–	3.39 ± 0.2	2.94 ± 0.079	3.38 ± 0.095
CKIDFQKNFMDQFQWIL [RRI2]	–	1.47 ± 0.092	1.55 ± 0.24	1.93 ± 0.13
CKNFEKTQLGSTMTEPV [GAL11]	2.81 ± 0.05	2.84 ± 0.065	2.58 ± 0.054	2.84 ± 0.039
